In paper PMC9333989:

B1: mouse CD4, wild type [mouse] / Lck (Src kinase) [mouse (endogenous in 58α−β− T cell hybridoma)] (parent)
chain 1: KTLVLGKEGESAELPCESSQKKITVFTWKFSDQRKILGQHGKGVLIRGGSPSQFDRFDSKKGAWEKGSFPLIINKLKMEDSQTYICELENRKEEVELWVFKVTFSPGTSLLQGQSLTLTLDSNSKVSNPLTECKHKKGKVVSGSKVLSMSNLRVQDSDFWNCTVTLDQKKNWFGMTLSVLGFQSTAITAYKSEGESAEFSFPLNFAEENGWGELMWKAEKDSFFQPWISFSIKNKEVSVQKSTKDLKLQLKETLPLTLKIPQVSLQFAGSGNLTLTLDKGTLHQEVNLVVMKVAQLNNTLTCEVMGPTSPKMRLTLKQENQEARVSEEQKVVQVVAPETGLWQCLLSEGDKVKMDSRIQVLSRGVNQTVFLACVLGGSFGFLGFLGLCILCCVRCRHQQRQAARMSQIKRLLSEKKTCQCPHRMQKSHNLI
chain 2: MGCVCSSNPEDDWMENIDVCENCHYPIVPLDSKISLPIRNGSEVRDPLVTYEGSLPPASPLQDNLVIALHSYEPSHDGDLGFEKGEQLRILEQSGEWWKAQSLTTGQEGFIPFNFVAKANSLEPEPWFFKNLSRKDAERQLLAPGNTHGSFLIRESESTAGSFSLSVRDFDQNQGEVVKHYKIRNLDNGGFYISPRITFPGLHDLVRHYTNASDGLCTKLSRPCQTQKPQKPWWEDEWEVPRETLKLVERLGAGQFGEVWMGYYNGHTKVAVKSLKQGSMSPDAFLAEANLMKQLQHPRLVRLYAVVTQEPIYIITEYMENGSLVDFLKTPSGIKLNVNKLLDMAAQIAEGMAFIEEQNYIHRDLRAANILVSDTLSCKIADFGLARLIEDNEYTAREGAKFPIKWTAPEAINYGTFTIKSDVWSFGILLTEIVTHGRIPYPGMTNPEVIQNLERGYRMVRPDNCPEELYHLMMLCWKERPEDRPTFDYLRSVLDDFFTATEGQYQPQP

Variants of: B1
Test: co-IP of Lck with CD4 from sucrose gradient fractions
Conditions: with Lck (Src kinase) [mouse (endogenous in 58α−β− T cell hybridoma)], mean ± SEM of three independent experiments, read off a plot
[1] = DRM fractions (center graph), parent: 3.7
[2] = DSM fractions (right graph), parent: 6.9
[3] = DRM fractions (center graph), parent: 2.6
[4] = DSM fractions (right graph), parent: 8.9

Variant	response [1] [AUC]	response [2] [AUC]	response [3] [AUC]	response [4] [AUC]
chain 1 G377V G380L C392S C395S C418S C420S	0.85	1.2		
chain 1 S406A S413A			3.2	
chain 1 S406D L411A L412A S413D			0.87	6.3
chain 1 S406D S413D			1.8	8.4
chain 1 G377V G380L	3.5	6.4		
chain 1 C392S C395S	2.1	8.9		
